The nature of this data set: soluble on expression in E. coli; label from the status in PepcDB or PDB records.
For the sequence “MAVNPATGKSDFVMMSEQQELGMGARYNQEILKQFPRYNDEKLQAYVQRVGERVARSSHRSNLQYHFTVIDSPDINAFALPGGYIYIHRGLIAYLGSEAELAAVLGHEVGHVTARHSVRQQSQASAWNILGQAVAIGTGVGAAGDLANVLGTAFVRGYGRDMELEADGLGAQYLARAGYDPTAMIQVVRVLKNQEDFAREEAARNGQAVQAGGYHGLFDTHPDNDRRLQEVVGPARQLANGQQEVGREVFLRHLEGMPFGDSASAGVRRGQNFYHAELDFTLSYPAGWKILNQPSALLGYPADEQSFIGMKLVPHDSRLTPAEFLRKNAGQRLAQEESLKQAGLNGYTAVVPGNPARRVAVIYQGDRAYLFVGVVKVGSLETQDDRFLSVIRSFRPLRDKERALAQPRRLHLVQVKAGQTLEQLAAGGEGSLSDSVARLRLLNDLYPSGEPRPGDWLKVVRLEHHHHHH”, the “soluble on expression in E. coli” value is given as “not soluble”.
Consider “MAVSDNTFSMSTMFNALPNPTETSGYIPPSGFAPRASATPLHAALFNLMTDGDGVSYFKEMISKSDKTELQRMASLLTSDSDYFMSIVTTKFGSRRVQKLLGKSDDVDAFFCAAILRRFLHITTDKYASYVTIRAMVVFDKVMKKALYERILYHALDLACDQHGCIALNDIITDADDPYYRDQLLELVVSNALRLSNDASGNFVVQHVLTLYDSRCIHNIAVNLYGQCIELSFKKYGSYIVEKLLEVEESMVVVVVELLGCDGDRLMRLARNEFGNFVVVKALRFTKEMRMDLFWGLVQKLMPFIHLLRRSHGNNIANILDTFRLRC”, for which the “soluble on expression in E. coli” value is listed as “soluble”.
Consider “MAVSLPTKYPLRPITNIPKSHRPSLLRVRVTCSVTTTKPQPNREKLLVEQRTVNLPLSNDQSLQSTKPRPNREKLVVEQRLASPPLSNDPTLKSTWTHRLWVAAGCTTLFVSLAKSVIGGFDSHLCLEPALAGYAGYILADLGSGVYHWAIDNYGDESTPVVGTQIEAFQGHHKWPWTITRRQFANNLHALAQVITFTVLPLDLAFNDPVFHGFVCTFAFCILFSQQFHAWAHGTKSKLPPLVVALQDMGLLVSRRQHAEHHRAPYNNNYCIVSGAWNNVLDESKVFEALEMVFYFQLGVRPRSWSEPNSDWIEETEISNNQA”, for which the “soluble on expression in E. coli” value was “soluble”.
The value for “MAVTVDDIKLSLRIDVTEDDPMIKSYLDAAKDYVQTAVSKNEDLTIYKQYDFAVSLLTQFWYQNRVTDMTKTPYQVVSMIQQLRGLVAG” was “not soluble”.
With “MAYFFKNLVFEGGGVKGIAYIGALEVLQEEKIFPKIKRVAGTSAGAIMAVLIGLGYTPSEIKEIMWCLNFKNFMDDSWGIIQDTKRLIEKFGWYKGDFFRNWLGDLIKAKTGNSESTFADLAAMKGENKFLDISLIGTNLSTGFSEIFSAEHTPRICIADAARISMSIPLFFAAKRNFRNDVYVDGGMLNNYPVKVFDRTKYVTKNFTRTGYYEPINKKLEKRPRKIADYVYNKETLGFRLDSKEKIAFFRDNAEPPHRDIDSFFDYTVSLFGTLLSAQDDVHLHSDDWQRTIYIDTLGVKTTDFAISDAQKKALLESGRSYTQSYLEWYNNSEEKVNK”, the “soluble on expression in E. coli” value is “not soluble”.
The value for “MAYNLKEVAKKPERLTGGHRMCAGCGAPIVVRQVLKALKPEDHAVISAATGCLEVSTFIYPYTAWKDSFIHSAFENTGATISGAEAAYKVLKKKGKIEGETKFIAFGGDGGTYDIGLQALSGAMERGHDMVYVCYDNGAYMNTGIQRSSATPKYADTTTSPVGKKIPGKMQPRKDLTEVLVNHRIPYVAQTAPFGNMKDLYEKAEKAIYTPGPAFLNVLAPCPRGWRYNTPDLMELSKLAVETCFWPLYEVIDGKYIINYKPKEKVPVKEFLKLQGRFKHLFKAGNEYMLEEIQKEVDLRWERLLKLAGEA” was “not soluble”; that for “MAYSKIRQPKLSDVIEQQLEFLILEGTLRPGEKLPPERELAKQFDVSRPSLREAIQRLEAKGLLLRRQGGGTFVQSSLWQSFSDPLVELLSDHPESQYDLLETRHALEGIAAYYAALRSTDEDKERIRELHHAIELAQQSGDLDAESNAVLQYQIAVTEAAHNVVLLHLLRCMEPMLAQNVRQNFELLYSRREMLPLVSSHRTRIFEAIMAGKPEEAREASHRHLAFIEEILLDRSREESRRERSLRRLEQRKN” was “soluble”.
Under “MAYVESFYMDASLESDADVLPASESDMFEAQFIADVPLDGDAIIRIVDSQLAFEQRNHVVSDYCTMKAAELEKNPNQLTMNSSVMDNQQYFAPPKSESSQYAWNTNDVVSSHHQYAAQSPNIYTNDYHTSEPSDYAYI” stands “not soluble”.
Under “MCDKSKTVLDYTIEFLDKYIPEWFETGNKCPLFIFFSGPQGSGKSFTSIQIYNHLMEKYGGEKSIGYASIDDFYLTHEDQLKLNEQFKNNKLLQGRGLPGTHDMKLLQEVLNTIFNNNEHPDQDTVVLPKYDKSQFKGEGDRCPTGQKIKLPVDIFILEGWFLGFNPILQGIENNDLLTGDMVDVNAKLFFYSDLLWRNPEIKSLGIVFTTDNINNVYGWRLQQEHELISKVGKGMTDEQVHAFVDRYMPSYKLYLNDFVRSESLGSIATLTLGIDSNRNVYSTKTRCIE” stands “soluble”.
As to “MCGRFAYIASYDKLKYQFHLANAIEVPPRFNISPGADVLCLVETDGHKIQCVLLRWGFIPSWATDRKKLGNLINARAETVFEKPTFRQSIKSKRCLIPMSGFYEWRQEDGVKQPYFFQKKNHDLLAVAAIRDTWQQSDEVIHSCCLITTDANAFMQPVHNRMPVILGEEAQAIWLNNTQYDKAQLMALMKPYPYEDLEGYRVTTLVNKANFDHPLAMEPLSELEHHHHHH”, the “soluble on expression in E. coli” value is recorded as “soluble”.
The value for “MCGRIAQKSAPEDYVEILWPNARLIFDDVAGPRYNIPPGTKPLTMHRLAGGFEVDRQWWTWRPSGSKYAMNCARLDKILGNKWPWKLLTARGRILVPADGWYEWKALDSSPKPAKQPYFIHGAGPLLFAGLSAWRPGAEMDEAHGFAIVTDDAQGGMVDVHDRRPVALPPELAREWVDPATPVARAMEILRAGLPETAFSWHPVRQEVGSSKYQLPDAIDPILEHHHHHH” was “soluble”.
Under “MCIHTIPYYSAKRRRIMDNQFFKNIEKKTGVKMQDVMNLAGSLQNANFKDENTVRSVINRVAQMANRRVPKELEDKIVESITSGKEKLDFGTISKMMDNKLEHHHHHH” stands “not soluble”.
Under “MCIIKPMDDVVKFIHEVGSLKLTPRSGWLKLGIRLPESVAEHSFRAAIIAFILALKSGESVEKACKAATAALFHDLHEARTMDLHKIARRYVSCDEEGAREEQLSWMESKPDFSDVEVYVSDADKLELAFQGVEYSQQVSYAIRFAENVELKTDAAKEIYRVLMERKNPVWWR” stands “soluble”; under “MCLVALAWKTHPRWRLLLAGNRDEFHERPTAPLAQWAAPAERVLAGRDLRSGGSWVGLGLDGRAAVVTNVRDPLATASGRSRGHLIADYLSGSADAATYARELAAAGQEFPPFNLLLCDAERCEHLSNHPALARALAPGIHGMSNGPLDAHWPKTTALTHALAAWCDSGSDDLQPLWTALANPATAADADLPHTGVDRATERLLSAAFIRGASYGTRASTIVAVDHHGHGFIHERRFGPDGVFQGETRLDVAGMHLEHHHHHH”, “not soluble”; under “MCLVKDKLKDIISVKSALSFSLKGDFDCPLEENSLFKALQILKNFLKSKNFSHSVIKSLDTLAIEVEKNIPTQAGLGGGSTDAGGLLYHLNQIFDWRLSLEELYSMGSLVGADTNFFISQYKSTNATSYGEVIENFEEEPLENRLEIYAPNHVFCSTKAVYQAYKPETCFSQAKEWLKKPSLECLKTYDRNGLNDLLKPALLTNQALKDIESELGKEWFFSGSGSAFFRLKPMQKGGELEHHHHHH”, “not soluble”.
In the case of “MCMGIFKRVSNMVKAKVNNTLDEMENPIELLDQKIRDMEESLNKAKISSAQILGNAHEIEKKLQKARLESEDYDSKVKLAVKNGNDDLAKRALERKLDADKRESLQKSYEDASQKSKVIKDKLRTLEEEIEKTRAYRDEAAARFNNAEATKKVNEVLSNVDTGSNSINLDDIERKIERKEAMAEGLGDLRNEDSLEKEFEKLNETNLDDELAKYKNNIKLEHHHHHH”, the “soluble on expression in E. coli” value was “soluble”.
The value for “MCMKQSLFGRVRDAILADFHNVLDEKERKNPIAMLNQYLRDSEREITKIEKLIQRHKTLKSNFARELEQARYFVNKRSKQALIAQEAGELQLHERALEEVAYYEGQVTRLEEMYAGVVEQIDELERRLSEMKNKLKEMHAKRMELMARENMAHANRRMNTAMHKMDENNPFLRFEEIEEHIRDLETRMNEEHERDTFDMKIAKLEREMKEKNDVSLTKELTKLEHHHHHH” was “not soluble”; that for “MCPEFQRKAAGAPRMGAMLARCVLTAALALQAAAAARAVEIEIGVASRGVVDGLEFVQFSADERTMATTHWGNVVHLWDLKTLRVRSSVSVANRDFDFDLSPDGRALAVWNEEGKGEIELYDTDNGQPARALPAPRLPQGESRRGRSLVYRDDGTLEFVSHGWIGGHARKAYLLAVPAGQPRAAETPLPALVNSVAFRKSAVMDQGRLLLAGVDGADDELAIMDIASGRMLAREPGFRIASYAADARRAVFVEADGKQRILAFDFSSRSLSTLPRWTGSGKFQPYRFVAGTRFLVLAPDEPDASTRRAAPGIYDLQTRRLHRLPPDADPGSIDVWGATASYVLCNPDHTACQAEVADLAISRKLGTFAVQPSADFRTWISPSGSMVVVGGADDGTMMVWSVKEQRVIGPNLEHHHHHH” was “not soluble”.
For the sequence “MCSDVVAGDLNDLRIAALNLGKMSELYTNGAFVLGIAQGADTETYGRPHEWWSYVEQQLATALRFTYDRLNDGQEALLAAIDAYAYVDGDNAKGLTDVGKEYKEYISNPNNVGDEKYYDPPPLHTMVDAPDLGDKPEGWEEKYDG”, the “soluble on expression in E. coli” value is “not soluble”.
“MCTDHQWINSAIRKIEADYQRSADTHLIKLDLPCVSGVDIYLKDESTHPTGSLKHRLARSLFLYGLCNGWIGPETTIIESSSGSTAVSEAYFARLLGLPFIAVMPKCTARKKIEQIQFYGGKAHLVDRSDQIYAESHRLAKELKGHYMDQFTYAERATDWRGNSNIADSIFSQMQMEQHPVPSWIVMSPGTGGTSATIGRFIRYQQYNTKLCVVDPENSVFYDYYRTRNAELTRDCGSKIEGIGRPRVEPSFIPDVVDEMRAIPDAASVATIYWLEKILGRKAGASTGTNLYGALQLACEMKRRGEQGSIVTLLCDSGERYLDTYYNSEWVKNNIGDLSKYLHKLETFSATGCLD”: the “soluble on expression in E. coli” value is “not soluble”.
In the case of “MCVKVACVGGGPAGLYLSILLKRQDPAHDVTVYERDPEGSTYGWGVTYWRGLLDRLRELDPGSARAVEEHSVRWRDGVAHVGGLATRHHGDEGFGIGRHRLLAILAARARELGVRLEFEHPVTGANPPAADLVVAADGAGSALRTHHADHFGTEITGGRDHYVWLGTTKVFDAFTFAFVETDHGWIWAYGYGFGPEGSTCVVECAPGTWTGLGLDRADEAEGLGLLEKLFADVLDGHPLSARSSGRASAAWPVFRTLTNRTWSRDNLVLLGDAAHTTHYSIGAGTTLALEDAMALATALRERDTLPDALAHYERERRAALLPVQSAARLSAQWYENLPRYIHLPPEQMFALLGQRHSPLLPHLPPRLYYRIDRAAGRLETLRRVKRRLGPVIARTVQARRLAAGDGRARSGRPDAVPAHRGLEHHHHHH”, the “soluble on expression in E. coli” value is “not soluble”.
The value for “MDAKVAFSPHSDANGRLDEIGADIDTAQSSVLFSLAFLGQMTRGAIGPALGRALERPEVHVMGIADAEVRAGNLGLNVLTPDNRRRVVRAAALTGNVPPPFLTEPSGLAGVDGNQRGTRMHHKFVVLDFDKPTARVYLGSYNFSNPADDENGENLVVVRDRTVATSYMIEALRMYDHYVFRVLEHHHHHH” was “soluble”.

These data come from the DeepSol protein solubility set.
